The Kd is the concentration at which binding is half-saturated.

Test [1] has as its target brush border membrane vesicles (BBMV) of Anopheles gambiae 4th instar larvae (Anopheles gambiae). In words: 125I-Cry11Ba binding to An. gambiae BBMV in the presence of 10 µM AgAPN2tb, against no peptide.
For test [2] the target is unchanged. In words: 2.5 nM 125I-Cry11Ba on 8 µg An. gambiae BBMV, no competitor.
The target is the same in test [3]. In words: 125I-Cry11Ba binding to An. gambiae BBMV in the presence of 10 µM AgAPN2tb/Del3, against no peptide.
Test [4] shares this target. In words: 125I-Cry11Ba binding to An. gambiae BBMV in the presence of 10 µM AgAPN2tb/Del1, against no peptide.
The target of test [5] is Cry11Ba toxin, trypsin-activated (Bacillus thuringiensis jegathesan) (Bacillus thuringiensis jegathesan) (UniProt Q45730). Briefly: cell-based or functional assay.
For test [6] the target is unchanged. In words: 125I-Cry11Ba binding to An. gambiae BBMV with 10 µM competitor peptide.
The target of test [7] is T1, Cry11Ba toxin, trypsin-activated (Bacillus thuringiensis jegathesan) (Bacillus thuringiensis jegathesan, UniProt Q45730 29-647, 125I-labelled (chloramine-T) in the BBMV binding assays; unlabelled when coated on microtiter plates).
T1 construct: also called trypsinized Cry11Ba; trypsinated Cry11Ba
In words: saturation ELISA, biotinylated peptide on plates coated with trypsinized Cry11Ba, one-site fit. For orientation: ELISA stands for enzyme-linked immunosorbent assay.

Cry11Ba toxin, trypsin-activated (Bacillus thuringiensis jegathesan) (Bacillus thuringiensis jegathesan), sequence (Q45730 29-647 limits assumed): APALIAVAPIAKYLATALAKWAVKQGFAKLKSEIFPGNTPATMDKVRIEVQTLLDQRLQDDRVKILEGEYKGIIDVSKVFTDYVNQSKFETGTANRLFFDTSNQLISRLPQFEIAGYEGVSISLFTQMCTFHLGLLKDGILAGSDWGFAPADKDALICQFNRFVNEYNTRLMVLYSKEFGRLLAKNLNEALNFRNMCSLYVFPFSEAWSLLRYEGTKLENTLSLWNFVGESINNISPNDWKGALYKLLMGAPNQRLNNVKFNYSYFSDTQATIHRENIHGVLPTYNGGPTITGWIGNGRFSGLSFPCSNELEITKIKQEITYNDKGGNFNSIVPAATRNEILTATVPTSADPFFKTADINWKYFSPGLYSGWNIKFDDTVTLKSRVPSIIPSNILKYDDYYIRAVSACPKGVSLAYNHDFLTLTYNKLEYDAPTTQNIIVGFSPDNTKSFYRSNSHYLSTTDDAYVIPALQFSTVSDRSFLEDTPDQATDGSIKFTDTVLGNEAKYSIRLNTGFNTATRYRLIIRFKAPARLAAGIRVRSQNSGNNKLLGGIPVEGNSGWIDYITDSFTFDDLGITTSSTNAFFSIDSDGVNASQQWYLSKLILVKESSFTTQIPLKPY
T1 sequence (Q45730 29-647 limits assumed): as above

For “Cry11Ba toxin, trypsin-activated (Bacillus thuringiensis jegathesan) (from UniProt Q45730 29-647) (ligand)”, the figures for the percent increase of Cry11Ba binding to BBMV in test [1], in test [3] and in test [4] were 24%, 45% and 62%, respectively. For the same molecule, the toxin bound in test [2] stood at 27.9 fmol.

As to “AgAPN2ta/Del3 (AgAPN2ta with the third 10-kDa segment deleted) (receptor)”, the larval mortality with Cry11Ba plus peptide inclusion bodies (1:100), 24 h in test [5] is 5%. For the same molecule, in test [6], the toxin bound to BBMV in presence of the competitor is 19.5 fmol.

“AgAPN2ta/Del2 (AgAPN2ta with a middle 10-kDa segment deleted) (receptor)”: in test [5], the larval mortality with Cry11Ba plus peptide inclusion bodies (1:100), 24 h is 8.8%. For the same molecule, the toxin bound to BBMV in presence of the competitor in test [6] was determined as 20.6 fmol.

B1: AgAPN2tb, 28-kDa fragment of Anopheles gambiae aminopeptidase N AgAPN2 (residues 591-843 of SEQ ID NO:2) (receptor)
chain: GKISKALHSEGFGGIHVLNRAQIVDDLFNLARGDVVPYGTALEILEYLKEETEYAPWLAAVNGLTTLSRRIHADDEKLFTAHILDIFSKAYDIVKFQAPTATERRIFTYMRQNVLQWACNYGHEECSKAAVAEFHRYHQNPSVKVHPDLRQVVYCEGIRKGSTEEFEFLWNQYLTTNVATEQILILQGLGCVSSSELITDMLNGIASPHVRSQDKNNAFTYVINNPYTLPHVSRYLQQNHANWAASHGSYTNV
modifications: biotinylated when used as probe
notes: Expressed in E. coli as inclusion bodies, solubilized in 8M urea, Ni-purified and dialyzed; An N-terminal Met from the NdeI site is implied by the primers; also called AgAPN2b; biotin-AgAPN2tb; not shown: C-terminal vector-derived His tag (pET-30a(+), NdeI/XhoI; purified on Ni2+ column)
Turning to B1, the dissociation constant (Kd) in test [7] is 0.0264 µM.

B2: AgAPN2ta, 30-kDa fragment of Anopheles gambiae aminopeptidase N AgAPN2 (residues 336-590 of SEQ ID NO:2) (receptor)
chain: STSMQQHRIAAVISHEIAHQWFGDLVTCEWWDVTWLNEGFARYYQYYGTALVETEWDLDHQFVVEQLQGVMQMDSLRSTHPMTHPVYTQAQTSGIFDNISYNKGAVMLRMMEHYLTTETFKTALRAYIKDRAFKTTRPEDLFNALNRYDPNARSYMEPWTVQPGYPLVTVTSHDTGFTITQKRFLVNEPDHNEQTAWPLPITFATKASEFSITRPAFYTGMTFEIPMQGASDVEYFILNNQQVGYYRVNYDAILW
modifications: biotinylated when used as probe
notes: Expressed in E. coli as inclusion bodies, solubilized in 8M urea, Ni-purified and dialyzed; An N-terminal Met from the NdeI site is implied by the primers; also called AgAPN2a; -2a; not shown: C-terminal vector-derived His tag (pET-30a(+), NdeI/XhoI; purified on Ni2+ column)
In turn, B2 displayed a Kd in test [7] of 0.0167 µM.

Source of the values: patent US9215869 (UNIVERSITY OF GEORGIA RESEARCH FOUNDATION, dated 2015).
